EC50 data for one molecule are collected here from PMC9313502 (Advanced Science, 2022).

The experiment concerns the target Biotinylated recombinant human TNF‐α (human, UniProt P01375 77-233, biotin on primary amines (lysine conjugation, NHS-PEG4-biotin)). The experiment is described as follows: ELISA; sparsely biotinylated hTNF-α (7.5 nM) held on avidin-coated 96-well plates; hTNFR1-ECD-HRP in solution, read at 450 nm with TMB; apparent EC50. The settings on record: both partners purified.

Sequence of Biotinylated recombinant human TNF‐α (P01375 77-233): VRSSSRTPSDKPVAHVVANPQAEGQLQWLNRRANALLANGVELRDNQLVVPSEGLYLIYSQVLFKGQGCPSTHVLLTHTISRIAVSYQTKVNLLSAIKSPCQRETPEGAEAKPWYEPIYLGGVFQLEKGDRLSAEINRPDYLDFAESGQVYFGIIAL

B1: HRP‐tagged human TNF‐α receptor 1 extracellular domain (receptor)
chain: RDSVCPQGKYIHPQNNSICCTKCHKGTYLYNDCPGPGQDTDCRECESGSFTASENHLRHCLSCSKCRKEMGQVEISSCTVDRDTVCGCRKNQYRHYWSENLFQCFNCSLCLNGTVHLSCQEKQNTVCTCHAGFFLRENECVSCSNCKKSLECTKLCLPQIEN
modifications: conjugated to horse‐radish peroxidase (HRP Conjugation Kit, Proteintech PK20001)
For B1, the half-maximal effective concentration (EC50) was determined as 4.6 nM.

As usually defined, the EC50 is the concentration at which the effect is half-maximal.
